What was measured:
BCL11B213-560 = BCL11B213-560 (UniProt Q9C0K0 213-560); experiment: EMSA
NTHL1 = molecular target: T1, NTHL1 (UniProt P78549 1-304); experiment: EMSA
T1 sequence: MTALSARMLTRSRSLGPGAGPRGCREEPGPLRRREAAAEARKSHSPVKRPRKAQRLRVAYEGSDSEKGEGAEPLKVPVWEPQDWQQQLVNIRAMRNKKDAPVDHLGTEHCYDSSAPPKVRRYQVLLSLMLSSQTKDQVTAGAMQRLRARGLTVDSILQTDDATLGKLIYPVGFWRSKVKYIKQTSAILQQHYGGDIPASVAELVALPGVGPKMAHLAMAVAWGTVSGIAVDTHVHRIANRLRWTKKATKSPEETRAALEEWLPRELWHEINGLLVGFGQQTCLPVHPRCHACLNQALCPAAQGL

Sequence of BCL11B213-560 (Q9C0K0 213-560): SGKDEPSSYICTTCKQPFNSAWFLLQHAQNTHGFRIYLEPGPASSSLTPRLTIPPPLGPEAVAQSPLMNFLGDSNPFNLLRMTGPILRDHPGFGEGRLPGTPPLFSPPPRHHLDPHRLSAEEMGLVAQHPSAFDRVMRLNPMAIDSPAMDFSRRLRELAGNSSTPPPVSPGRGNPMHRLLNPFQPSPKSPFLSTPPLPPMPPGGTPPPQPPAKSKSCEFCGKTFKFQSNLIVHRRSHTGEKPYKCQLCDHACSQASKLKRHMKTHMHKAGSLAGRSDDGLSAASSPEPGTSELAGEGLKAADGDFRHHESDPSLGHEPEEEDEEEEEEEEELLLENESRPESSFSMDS

B1: thymine glycol 32-mer duplex (dsDNA)
DNA 1: CCGGTGCATGACACTGTTACCTATCCTCAGCG
DNA 2: CGCTGAGGATAGGTAACAGTGTCATGCACCGG
modifications: thymine glycol at position 18 of strand 1 (printed X, written T)
binding result (BCL11B213-560): no binding | binding result (NTHL1): binds

Reference: paper PMC10783527
